Reference: the supplement of paper PMC7125110
± gives the standard error. Variants at the floor of the assay were thinned out.

B1: glmS ribozyme (parent)
chain: AUAAAAGCGCCAGAACUACAGAAAUGUAGUUGACGAGGAGGAGGUUUAUCGAAUUUUCGGCGGAUGCCUCCAAA

Experiments:
Details in all cases: with glucosamine-6-phosphate
glucosamine-6-phosphate [1] = variants of: B1; experiment: self-cleavage kobs at 40 uM GlcN6P; higher = faster cleavage; RNA array
Outline: (§1)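 A hybridised Cy3 probe tracked barcoded ribozyme variants, transcribed in situ by E. coli RNA polymerase on sequenced MiSeq chips, at 37 °C. The variants received 40 μM to 10 mM glucosamine-6-phosphate in HEPES/KCl/Mg(OAc)2 buffer. kobs came from decay fits and kcat and KM from weighted Michaelis–Menten fits.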

glucosamine-6-phosphate [2] = variants of: B1; experiment: self-cleavage kobs at 10000 uM GlcN6P; higher = faster cleavage; RNA array
Outline: as §1

glucosamine-6-phosphate [3] = variants of: B1; experiment: self-cleavage kobs at 640 uM GlcN6P; higher = faster cleavage; RNA array
Outline: as §1

glucosamine-6-phosphate [4] = variants of: B1; experiment: self-cleavage kobs at 2500 uM GlcN6P; higher = faster cleavage; RNA array
Outline: as §1

glucosamine-6-phosphate [5] = variants of: B1; experiment: self-cleavage kobs at 160 uM GlcN6P; higher = faster cleavage; RNA array
Outline: as §1

Row | Variant | self-cleavage kobs at 40 uM GlcN6P (glucosamine-6-phosphate [1]) [s⁻¹] | self-cleavage kobs at 10000 uM GlcN6P (glucosamine-6-phosphate [2]) [s⁻¹] | self-cleavage kobs at 640 uM GlcN6P (glucosamine-6-phosphate [3]) [s⁻¹] | self-cleavage kobs at 2500 uM GlcN6P (glucosamine-6-phosphate [4]) [s⁻¹] | self-cleavage kobs at 160 uM GlcN6P (glucosamine-6-phosphate [5]) [s⁻¹]
1 | A6U A15C G32A G63C A64U | < 1e-05 | – | – | – | –
2 | A6U G13C U69C | < 1e-05 | < 1e-05 | – | – | –
3 | A6G A15C G35A | < 1e-05 | < 1e-05 | – | – | –
4 | A6U C34U C58U | < 1e-05 | – | – | – | –
5 | A6C U31G G32A G41U | < 1e-05 | – | – | – | –
6 | A6C G32C U47A | < 1e-05 | – | < 1e-05 | < 1e-05 | –
7 | A6G G44U C58U G63U | < 1e-05 | – | – | < 1e-05 | –
8 | A6U A12U G32C A33C C50A | < 1e-05 | < 1e-05 | – | – | –
9 | G7A C58G | < 1e-05 | – | < 1e-05 | – | < 1e-05
10 | A6C G32C G60U | < 1e-05 | < 1e-05 | – | – | –
11 | G7C C16G A52G | < 1e-05 | < 1e-05 | < 1e-05 | – | –
12 | G7C C11U A42G A64U | < 1e-05 | < 1e-05 | – | – | –
13 | A6G A15U C34A | < 1e-05 | < 1e-05 | < 1e-05 | < 1e-05 | < 1e-05
14 | G7A U47A | < 1e-05 | – | – | – | < 1e-05
15 | G7A A12C U30G | < 1e-05 | – | – | – | –
16 | A6G A42G C50A U54C C70G | < 1e-05 | < 1e-05 | < 1e-05 | < 1e-05 | < 1e-05
17 | G7C C16A U47C A53U | < 1e-05 | < 1e-05 | – | – | –
18 | A6G U31G C34G | < 1e-05 | < 1e-05 | < 1e-05 | – | –
19 | G7A A12C G51C A53G G66A | < 1e-05 | – | – | – | –

Row | Variant | self-cleavage kobs at 40 uM GlcN6P (glucosamine-6-phosphate [1]) [s⁻¹] | self-cleavage kobs at 10000 uM GlcN6P (glucosamine-6-phosphate [2]) [s⁻¹] | self-cleavage kobs at 640 uM GlcN6P (glucosamine-6-phosphate [3]) [s⁻¹] | self-cleavage kobs at 2500 uM GlcN6P (glucosamine-6-phosphate [4]) [s⁻¹] | self-cleavage kobs at 160 uM GlcN6P (glucosamine-6-phosphate [5]) [s⁻¹]
20 | A6G U31G A42C A48G C67G | < 1e-05 | – | – | – | –
21 | A6G G40C U47G U49G C58G C68A | < 1e-05 | < 1e-05 | – | – | –
22 | A6C C16U C70U | < 1e-05 | 9.69e-05 ± 1.9e-05 | – | – | –
23 | A6C U31C | < 1e-05 | – | – | – | < 1e-05
24 | A6U A12U U65G | < 1e-05 | – | – | – | –
25 | G7A G13U U55C | < 1e-05 | < 1e-05 | – | – | –
26 | A6C G44U C68G | < 1e-05 | < 1e-05 | < 1e-05 | – | –
27 | A6C G40A | < 1e-05 | 2.46e-05 ± 9.8e-06 | – | – | < 1e-05
28 | G7C C10A A52C | < 1e-05 | < 1e-05 | – | – | –
29 | A6G C8A C58U | < 1e-05 | < 1e-05 | – | – | –
30 | A6C G32A C34U U54G C58U G66A | < 1e-05 | < 1e-05 | – | – | –
31 | A6U A42G G43C | < 1e-05 | – | – | – | –
32 | G7A G44C A48U C68U | < 1e-05 | < 1e-05 | – | – | –
33 | G7A U30G U45G C67G C68A | 0.000126 ± 4e-05 | 0.00014 ± 3.6e-05 | – | – | –
34 | G7C A39G C70U | < 1e-05 | < 1e-05 | – | – | –
35 | A6U G9A A33G C68U C71G | 0.000234 ± 0.0001 | 4.24e-05 ± 1.8e-05 | – | – | –
36 | A6U G40U U56A | < 1e-05 | – | < 1e-05 | – | –
37 | A6C U31C G59U | < 1e-05 | – | – | – | –
38 | G7C A42C C61U | < 1e-05 | – | – | – | –

Row | Variant | self-cleavage kobs at 40 uM GlcN6P (glucosamine-6-phosphate [1]) [s⁻¹] | self-cleavage kobs at 10000 uM GlcN6P (glucosamine-6-phosphate [2]) [s⁻¹] | self-cleavage kobs at 640 uM GlcN6P (glucosamine-6-phosphate [3]) [s⁻¹] | self-cleavage kobs at 2500 uM GlcN6P (glucosamine-6-phosphate [4]) [s⁻¹] | self-cleavage kobs at 160 uM GlcN6P (glucosamine-6-phosphate [5]) [s⁻¹]
39 | A6U U55G G62C C70A | < 1e-05 | – | – | – | –
40 | A6C C10U C67A | < 1e-05 | – | – | – | –
41 | A6C G29A G40A G44U | < 1e-05 | < 1e-05 | – | – | –
42 | A6U C16U U30C | < 1e-05 | – | – | – | –
43 | G7A C11G A12U A42C G44A G51C A53U C71U | < 1e-05 | < 1e-05 | – | – | –
44 | A6G C8U U57C C67U | < 1e-05 | < 1e-05 | – | – | –
45 | A6G G43C | < 1e-05 | < 1e-05 | < 1e-05 | < 1e-05 | < 1e-05
46 | A6C U49A G51U | < 1e-05 | < 1e-05 | – | – | –
47 | A6U U49G | < 1e-05 | – | < 1e-05 | < 1e-05 | < 1e-05
48 | A6G U31A G32U | < 1e-05 | < 1e-05 | < 1e-05 | < 1e-05 | < 1e-05
49 | A6G A14U G40C C67G | < 1e-05 | – | < 1e-05 | – | –
50 | G7A G13C G38A | < 1e-05 | – | – | < 1e-05 | –
51 | A6C G62U | < 1e-05 | < 1e-05 | – | < 1e-05 | < 1e-05
52 | A6C G62A G66C U69A | < 1e-05 | < 1e-05 | – | – | –
53 | A6U G9U A15C U30A U49C | < 1e-05 | – | – | – | –
54 | A6U G44C C50A | < 1e-05 | – | – | – | –
55 | G7A C50G C71U | 0.000141 ± 3.5e-05 | 9.72e-05 ± 2.2e-05 | 0.000136 ± 3.9e-05 | 0.000177 ± 3.7e-05 | 0.000482 ± 9.3e-05
56 | G7A G9U U31G G41A U65C | < 1e-05 | – | < 1e-05 | – | < 1e-05
57 | A6C G13C C68G | < 1e-05 | – | – | < 1e-05 | –
